Measured values reported in patent US20050079613A1, “Downregulation of cell surface glycoproteins by a family of human ubiquitin ligases” (Oregon Health & Science University, priority 2002, published 2005).

Columns and labels:
Type in all cases: cell-based, human
CD4 = experiment: Surface expression of co-transfected CD4 on HeLa cells, flow cytometry
Protocol: (§1) Flow cytometry. Cells were removed from tissue culture dishes with 0.05% Trypsin-EDTA (Invitrogen), washed with ice-cold PBS, and incubated with appropriate antibody for 30 minutes at 4° C. The cells were washed with ice-cold PBS and either resuspended in ice-cold PBS or incubated with PE-conjugated anti-mouse secondary antibody (DAKO) and washed again before analysis with a BD Biosciences (San Jose, Calif.) FACScalibur flow cytometer.
The ability to downregulate MHC I is common to KSHV-K3, KSHV-K5, MHV68-K3 and MV-M153R (Coscoy and Ganem, 2000, supra; Guerin et al., 2002, supra; Ishido et al., 2000b supra; Stevenson et al., 2000, supra). Additional substrates are ICAM-1 and B7.2 (but not B7.1) for KSHV-K5, as well as CD95 and CD4 for M153R (Coscoy and Ganem, 2001, supra; Guerin et al., 2002, supra; Ishido et al., 2000a, supra; Mansouri et al., 2003, supra). Since only low copy numbers were detected in HeLa cells for transcripts corresponding to each of the MARCH-proteins (FIG. 7C, and data not shown), HeLa cells were transfected with expression plasmids for MARCH-I, II, III, IV, V and VIII. Surface expression of selected glycoproteins was monitored upon transfection. […] Surface expression of the respective markers was analyzed by flow cytometry. […]

HLA-A2.1 = experiment: Pulse-chase of HLA-A2.1 maturation and turnover in transfected HeLa cells; settings: HeLa cells co-transfected with HLA-A2.1 and MARCH-IV, chase up to 8 hours
Protocol: Metabolic labeling, immunoprecipitation and Western blotting. HeLa cells were grown to 80% confluency in 100 mm tissue culture dishes and transfected as above. Cells were incubated in serum-free and methionine-free medium for 30 minutes, and metabolically labeled with ^35S-cysteine/^35S-methionine (250 μCi, Amersham) for the indicated time. After labeling, cells were washed twice with PBS and either lysed immediately in PBS containing 1% Triton X-100 and protease inhibitors (Roche, Indianapolis, Ind.), or the label was chased with excess (2 mM) unlabeled cysteine and methionine in the presence or absence of specific inhibitors for the indicated time. The cell lysates were precleared with protein A/G agarose beads and incubated with 3 μg of antibody for one hour and followed by two hours incubation with protein A/G beads. Immunoprecipated proteins were washed five times with 0.1% Triton X-100 in PBS. All samples were boiled in SDS buffer and analyzed by SDS-PAGE gel electrophoresis. Where indicated, samples were treated with Endoglycosidase H (Roche) according to manufacturer's instructions. Briefly, samples were initially denatured at 100° C. in 40 μl of 0.3% SDS, 150 mM 2-mercaptoethanol, 50 mM sodium acetate, pH 5.5 and incubated with 4 milli-Units of Endo H overnight at 37° C. All samples were boiled in SDS buffer and analyzed by SDS-PAGE gel electrophoresis. […]

HLA class I (MHC I) = experiment: Surface expression of endogenous MHC I on transfected HeLa cells, flow cytometry
Protocol: as §1
The ability to downregulate MHC I is common to KSHV-K3, KSHV-K5, MHV68-K3 and MV-M153R (Coscoy and Ganem, 2000, supra; Guerin et al., 2002, supra; Ishido et al., 2000b supra; Stevenson et al., 2000, supra). Additional substrates are ICAM-1 and B7.2 (but not B7.1) for KSHV-K5, as well as CD95 and CD4 for M153R (Coscoy and Ganem, 2001, supra; Guerin et al., 2002, supra; Ishido et al., 2000a, supra; Mansouri et al., 2003, supra). Since only low copy numbers were detected in HeLa cells for transcripts corresponding to each of the MARCH-proteins (FIG. 7C, and data not shown), HeLa cells were transfected with expression plasmids for MARCH-I, II, III, IV, V and VIII. Surface expression of selected glycoproteins was monitored upon transfection. The following known substrates for viral K3-family members were tested: Fas (CD95) and HLA class I (MHC I), both of which are endogenously expressed in HeLa cells, as well as transfected HLA-A2.1 or CD4. […] Surface expression of the respective markers was analyzed by flow cytometry. GFP was used to identify transfected cells.
With regards to whether MHC I downregulation by MARCH-IV was only observed at very high expression levels, since the viral immune evasion genes seem to be dedicated to MHC I downregulation, MHC I expression was compared at different expression levels of MARCH-IV or KSHV-K5 by taking advantage of the tetracycline-regulatable system to partially express either protein (Gossen, M. and H. Bujard, Proc. Natl. Acad. Sci. USA 89:5547-5551, 1992). Tet-off HeLa cells were transfected with either MARCH-IV or with KSHV-K5 in the presence of increasing amounts of tetracycline to shut off transcription. […]

B1: MARCH-IV: human membrane-associated RING-CH ubiquitin ligase, SEQ ID NOS:45 and 57; construct used lacks the first 63 amino-acids (protein)
chain: WYCYGLCAPAPQMLRHQGLLKCRCRMLFNDLKVFLLRRPPQAPLPMHGDPQPPGLAANNTLPALGAGGWAGWRGPREVVGREPPPVPPPPPLPPSSVEDDWGGPATEPPASLLSSASSDDFCKEKTEDRYSLGSSLDSGMRTPLCRICFQGPEQGELLSPCRCDGSVKCTHQPCLIKWISERGCWSCELCYYKYHVIAISTKNPLQWQAISLTVIEKVQVAAAILGSLFLIASISWLIWSTFSPSARWQRQDLLFQICYGMYGFMDVVCIGLIIHEGPSVYRIFKRWQAVNQQWKVLNYDKTKDLEDQKAGGRTNPRTSSSTQANIPSSEEETAGTPAPEQGPAQAAGHPSGPLSHHHCAYTILHILSHLRPHEQRSPPGSSRELVMRVTTV
For B1, which “surface expression of transfected CD4” value (CD4; HeLa cells co-transfected with CD4 and MARCH plasmid) is on record?
Its value is “reduced the surface expression”.

And the “downregulation of CD4 with lysines removed from the cytoplasmic tail” value (CD4; HeLa cells, lysine-deleted CD4)?
Its value is “resistance”.

And the “fate of HLA-A2.1 in pulse-chase” value (HLA-A2.1)?
The value was “exits the ER but is degraded”.

What about the “surface expression of MHC I” value (HLA class I (MHC I); HeLa cells transfected with MARCH plasmid and GFP, 24 h post-transfection) of the same molecule?
Its value is “significantly downregulated”.

And the “MHC I downregulation at tetracycline-regulated expression levels” value (HLA class I (MHC I); Tet-off HeLa cells, increasing amounts of tetracycline, below the detectable level of RING-CH protein expression)?
The value was “partial MHC I downregulation”.
